{"source": "paper PMC12884786", "about": "“Evolution of Multivalent Aptamer Corona for High‐Throughput Multiplexed Detection of Multiple Cancers”", "binders": {"B1": {"name": "OV8 (ssDNA)", "DNA": "CAGCACCGTCAACTGAATGAGTCGCGGGTGGGTGGGTGGCCTTGCTCGGTGATGCGATGGAGATGT"}, "B2": {"name": "CRC4 (ssDNA)", "DNA": "CAGCACCGTCAACTGAATGCTGAGGGCGGGTGGGTGGCACATTCGATGGTGATGCGATGGAGATGT"}, "B3": {"name": "CRC7 (ssDNA)", "DNA": "CAGCACCGTCAACTGAATCGGCGGGTGGGTGGGCGGAGATTTAACGTCGTGATGCGATGGAGATGT"}, "B4": {"name": "CRC5 (ssDNA)", "DNA": "CAGCACCGTCAACTGAATCCTGCGGGCGGGTGGGTGGTTGGATTCTTGGTGATGCGATGGAGATGT"}, "B5": {"name": "OV10 (ssDNA)", "DNA": "CAGCACCGTCAACTGAATGAGGTGGGAGGGAGGGGTTGACCTTGCGTGGTGATGCGATGGAGATGT"}, "B6": {"name": "OV2 (ssDNA)", "DNA": "CAGCACCGTCAACTGAATGTGGGTGGGTGGGTGGTAAGTTGTGCCGACGTGATGCGATGGAGATGT"}}, "assay_in_all_cases": "SPR; 5 mM Mg2+; SPR (Biacore 8K, CM5 chip, protein immobilized): DPBS with 5 mM Mg2+, 25 C; aptamer 0-1000 nM; pH not stated", "details_in_all_cases": "protein: commercial", "key": {"[1]": {"target": "T1, histidine-rich glycoprotein (human, UniProt P04196 19-525)", "T1 sequence": "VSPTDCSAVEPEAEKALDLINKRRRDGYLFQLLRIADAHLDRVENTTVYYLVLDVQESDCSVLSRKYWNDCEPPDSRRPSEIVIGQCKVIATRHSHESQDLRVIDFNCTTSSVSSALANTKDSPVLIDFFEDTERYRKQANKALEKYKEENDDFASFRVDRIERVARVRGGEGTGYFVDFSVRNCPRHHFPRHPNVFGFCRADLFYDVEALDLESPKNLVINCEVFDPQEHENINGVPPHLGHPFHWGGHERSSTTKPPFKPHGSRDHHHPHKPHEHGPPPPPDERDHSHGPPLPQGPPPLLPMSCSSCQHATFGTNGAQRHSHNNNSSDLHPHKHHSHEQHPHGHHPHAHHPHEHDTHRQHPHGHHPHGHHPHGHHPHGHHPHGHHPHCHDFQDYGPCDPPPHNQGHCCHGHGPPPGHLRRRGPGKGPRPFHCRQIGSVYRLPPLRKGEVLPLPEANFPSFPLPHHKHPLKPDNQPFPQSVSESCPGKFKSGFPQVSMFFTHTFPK"}, "apolipoprotein C-III": {"target": "apolipoprotein C-III (human, UniProt P02656 21-99)", "sequence (P02656 21-99)": "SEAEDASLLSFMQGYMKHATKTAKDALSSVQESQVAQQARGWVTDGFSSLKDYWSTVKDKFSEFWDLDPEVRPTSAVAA"}, "[2]": {"target": "T2, vitamin K-dependent protein S (human, UniProt P07225 42-676)", "T2 sequence": "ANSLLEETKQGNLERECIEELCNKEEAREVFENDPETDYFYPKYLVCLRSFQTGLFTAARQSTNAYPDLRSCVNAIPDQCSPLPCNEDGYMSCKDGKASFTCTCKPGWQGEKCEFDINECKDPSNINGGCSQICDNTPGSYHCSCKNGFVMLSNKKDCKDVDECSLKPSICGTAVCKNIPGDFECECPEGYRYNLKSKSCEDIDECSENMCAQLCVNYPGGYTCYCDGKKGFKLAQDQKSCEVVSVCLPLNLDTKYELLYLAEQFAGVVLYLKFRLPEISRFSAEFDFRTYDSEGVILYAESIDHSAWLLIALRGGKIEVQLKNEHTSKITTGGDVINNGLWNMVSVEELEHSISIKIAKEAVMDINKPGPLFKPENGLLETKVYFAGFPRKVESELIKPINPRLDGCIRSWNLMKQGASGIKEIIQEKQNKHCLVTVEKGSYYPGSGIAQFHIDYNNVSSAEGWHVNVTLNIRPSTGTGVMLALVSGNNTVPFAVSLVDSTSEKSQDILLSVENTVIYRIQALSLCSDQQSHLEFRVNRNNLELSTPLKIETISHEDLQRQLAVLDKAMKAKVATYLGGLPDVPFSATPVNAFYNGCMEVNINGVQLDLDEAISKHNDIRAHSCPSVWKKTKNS"}, "[3]": {"target": "complement factor H-related protein 1 (human, UniProt Q03591 19-330)", "sequence (Q03591 19-330)": "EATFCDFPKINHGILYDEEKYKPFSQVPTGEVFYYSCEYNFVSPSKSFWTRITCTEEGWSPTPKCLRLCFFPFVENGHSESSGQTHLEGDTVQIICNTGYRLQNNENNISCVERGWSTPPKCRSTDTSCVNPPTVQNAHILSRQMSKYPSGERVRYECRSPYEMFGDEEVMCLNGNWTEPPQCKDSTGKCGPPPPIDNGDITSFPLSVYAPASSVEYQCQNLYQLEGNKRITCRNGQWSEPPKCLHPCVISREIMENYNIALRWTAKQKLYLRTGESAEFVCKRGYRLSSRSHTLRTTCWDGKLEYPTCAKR"}, "serum amyloid A2": {"target": "T3, serum amyloid A2 (human, UniProt P0DJI9 19-122)", "T3 sequence": "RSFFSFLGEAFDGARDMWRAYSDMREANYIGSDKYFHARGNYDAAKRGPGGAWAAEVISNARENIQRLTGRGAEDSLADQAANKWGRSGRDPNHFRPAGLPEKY"}, "[4]": {"target": "complement C1q subcomponent subunit B (human, UniProt P02746 28-253)", "sequence (P02746 28-253)": "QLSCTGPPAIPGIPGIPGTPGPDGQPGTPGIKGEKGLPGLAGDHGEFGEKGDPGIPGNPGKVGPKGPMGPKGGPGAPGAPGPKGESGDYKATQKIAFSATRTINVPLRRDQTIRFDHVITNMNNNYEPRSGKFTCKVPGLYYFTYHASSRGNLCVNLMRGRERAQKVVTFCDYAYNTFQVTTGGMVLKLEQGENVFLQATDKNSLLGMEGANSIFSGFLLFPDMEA"}}, "data": [{"binder": "B1", "values": [{"measurement": "binding result", "setting": "[1]", "result": "binds"}]}, {"binder": "B2", "values": [{"measurement": "binding result", "setting": "apolipoprotein C-III", "result": "binds"}]}, {"binder": "B3", "values": [{"measurement": "binding result", "setting": "[2]", "result": "binds"}]}, {"binder": "B4", "values": [{"measurement": "binding result", "setting": "[3]", "result": "binds"}]}, {"binder": "B5", "values": [{"measurement": "binding result", "setting": "serum amyloid A2", "result": "binds"}]}, {"binder": "B6", "values": [{"measurement": "binding result", "setting": "[4]", "result": "binds"}]}]}
